Drawing on patent US20170334958A1, this text covers Kd for 1 molecule.

In the assay the target is tumor necrosis factor-α (TNF-α) (human) (UniProt P01375). In words: 35S free protein + biotin-TNF-α in solution, biotin capture membrane, phosphorimaging.
Chain of tumor necrosis factor-α (TNF-α) (human) (P01375 77-233 limits assumed): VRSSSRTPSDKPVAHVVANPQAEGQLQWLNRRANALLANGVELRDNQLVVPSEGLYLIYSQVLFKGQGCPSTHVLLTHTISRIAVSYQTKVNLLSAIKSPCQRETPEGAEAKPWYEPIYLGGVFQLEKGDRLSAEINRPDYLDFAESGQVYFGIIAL

B1: T14.06 (designed binder)
chain: VSDVPRDLEVVAATPTSLLISWTRTNASTRYYRITYGETGGNSPVQEFTVPNFWWTATISGLKPGVDYTITVYAVTSPDETSAYSEPISINYRT
Consider B1, for which the Kd (usually the constant that tells how readily two partners part at equilibrium) came out at 1.4 nM.
